According to the nanobody polyreactivity screen of Harvey et al. (2022):

Assay: yeast display, Sf9 membrane polyspecificity reagent, FACS + sequencing; frameworks hold sequencing errors
How it was run: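 Nanobodies from a synthetic yeast display library (Saccharomyces cerevisiae BJ5465), induced 36–48 hours with galactose, were stained 1 hour at 4 °C with 10% biotinylated, detergent-solubilized Sf9 membrane reagent, enriched on streptavidin microbeads, then FACS-sorted. Anti-HA (expression) and streptavidin (reagent binding) fluorescence set low and high (top ~1%) gates. Polyreactivity labels come from the gate of origin. Genes were colony-PCR amplified, MiSeq 2 × 250 sequenced and filtered by CDR length.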

Row | Sequence | polyreactivity (PSR sort gate)
1 | QVHLVESGGGLVQAGGSLRLSCAASGSTFRYYAMGWYRQAPGKERELVATINRSGGSTYYADSVKGRFTISRDNAKNTVYLQMNSLKPEDTAVYYCAATHYYSHFLWFASNYDYWGQGTQVTVSS | high polyreactivity
2 | QVQLVESGGGLVQAGGSLRLSCAASGIIFGNYAMGWYRQAPGKERELVAAITNGSSTNYADSVKGRFTISRDNAKNTVYLQMNSLKPEDTAVYYCARDGIGADGYDYWGQGTQVTVSS | low polyreactivity
3 | QVQVVESGGGLVQAGGSLRLSCAASGRTFFFYAMGWYRQAPGKERELVAGITSRGTRTYYADSVKGRFTISRDNAKNTVYLQMNSLKPEDTAVYYCATDDSRDWLNYWGQGTQVTVSS | low polyreactivity
4 | QVQLVESGGGLVQAGGSLRLSCAASGRIFGHNAMGWYRQAPGKERELVARISSTGSTKYADSVKGRFTISRDNAKNTVYFQMNSLKPEDTAVYYCAAVDRLRSIRYDYWGQGTQVTVSS | high polyreactivity
5 | QVQLVDSAGCLVQAGGSLRLSCAASGRIFVYYVMGWYRQAPGKERELVASITFRGSRTYYADSVKGRFTISRDYAKNTVYLQMISLKPEDTAVYYCNADVWASGSRGDGYWGQGTQVTVAS | low polyreactivity
6 | QVQLVESGGGLVQAGGSLRLSCAASGSISYIYTMGWDRQAPGKQRELVAAMSGSGSTYYADSVKGRFTISRDNAKNTVYLQMNSLKQEDTAVHYCNAGSGGLNFQEVPHGYDYWGQGTQVTVSS | low polyreactivity
7 | QMQLQESGGGLVQAGGSQRLSCAASDSISIGAGMGWYRQAPGKERELVAGISVGTSTNYADSVNGRFTISRVNAKNTVYLQMNSLKPEDTAVYYCAKGYRRVYGPFYYWGQGTQVTVSS | low polyreactivity
8 | QVQLVESGGGLVQAGGSLLLSCAASGITFGVYAMGWYRQAPGKERELVAAISVNGGSTYYADSVKGRFTISRDNAKNTVYLQMNSLNPQDTAVYSCAADVLYYIDDDSIIEYDYWGQGTQVTVSS | low polyreactivity
9 | QVQLVESGGGLVQAGGSLRLSCAASGSTIAGNAMGWYRQAPGKERELVAVITRGGSTNYADSVKGRFTISRDNAKNTVSLQMNSLKPEDTAVYYCARYRFLLDYWRGGYYWGQGTQVTVSS | high polyreactivity
10 | QVQLVESGGGLVQAGGSLRLSCAASGFIFNGNVMGWYRQAPGKERELVAAITVSGGSTRYADSVKGRFTISRDNAKNTVYLQMNSLKPEDTAVYYCAARTRYLSYGWIHEYYYWGQGTQVTVSS | high polyreactivity
11 | QVQLVESGGGLVQAGGSLRLSCAASGSTFVRNGMGWYRQAPGKERELVASISGRGGSTYYADSVKGRFTISRDNAKNTVYLQMNSLKPEDTAVYYCAVRYGFYSRYNYWGQGTQVTVSS | high polyreactivity
12 | QVQLVESGGGLVQAGGSLRLSCAASGRIFDSNAMGWYRPAPGKERELVAAISYDGGSTYYADSVKGRFTISRDNAKNTVYLQMNSLKPEDTAVYYCAADDGWYYYYGYDYWGQGTQVTVSS | low polyreactivity
13 | QVQLVESGGGLVQAGGSLRLSCAASGRTFVDNAMGWYRHAPGKERELVAAISSGGTTNYADSVKGRFTISRDNAKNTVYLQMNSLKPEDTAVYYCNTVATYLRSGYGYWGQGTQVTVSS | low polyreactivity
14 | QVQLVESGGGLVQAGGSLRLSCAASGTTFSYNAIVWYRQAPGKERELVAAISGSGGTTYYADSVKGRFTISRDNAKNTVYLEMNSLKPEDTAVYYCDARPFRSWRYDYWGQGTQVTVSS | low polyreactivity
15 | QVQLVESGGGLVQAGGSLRLSCAASGSTFPKNAMGWTIQAPGKERELVADINTGGSTYYADSVKGRFTISRDNAKNTVYLQMNSLIPEDTAVYYCNTQSFYFVSYSSSRYLRYYWGQVTQVTVSS | low polyreactivity
16 | QVQLVESGGGLVQAGGSLRLSCAASGGTFLAYAMGWYRQAPGKERELVAAITRRGTRTYYADSVKGRFTISRDNANNTVYLQMNSLKPEDTAVYYCAVSGGFYWGQGTQVTVSS | high polyreactivity
17 | QVQLVESGGGLVQAGGSLRLSCAASGSNFAKYAMGWYRQAPGKERELVAAISWRGGSTYYADSVKGRFTISRDNAKNTVYLQMNSLKPEDTAVYYCNKVGTWQGPYDYWGQGTQVTVSS | high polyreactivity
18 | QVQLVESGGGLVQAGGSLRLSCAASGSTFQWNALGWYRQAPGKERELVASITDSGGRTNYADSVKGRFTISRDNAKNTVYLQMNSLKPEDTAVYYCNAAGYRRSTWWYDYWGQGSQVTVSS | high polyreactivity
19 | QVQLQESGGGLVQAGGDLRLSCAASGKILRDYIMGWYRQASGKEREFVAGIDRGANTNYADSVKGRLTISRDNAKKTVYLQMNSLKPEDTAVYYCAVHTAIVPDFIYWGQGTQVTVSS | low polyreactivity
20 | QVQLVESGGGLVQAGGSLRLSCAASGITFYSYAMGWYRQAPGKERELVAAITRGGSTYYADSVKGRFTISRDNAKNTVYLQMNSLKPEDTAVYYCAASPLGGYGYWGQGTQVTVSS | high polyreactivity
21 | QVQLVESGGGLVQAGGSLRLSCAASGFIFYTYVMGWYRQAPGKERELVAAISGTGGRTYYADSVKGRFTISRDNAKNTVYLQMNSLKPEDTAVYYCAAVSRYATGGGYWGQGTQVTVSS | high polyreactivity

Row | Sequence | polyreactivity (PSR sort gate)
22 | QVQLVESGGGLVQAGGSLRLSCAASGRICTRYMGWYRQAPGKERELVATINWSGGSTYYADSVKGRFTISRDNAKNTVYLQMNSLKPEDTAVYYGNARNVDFYYVQYNGAKIFDYWGQGTQVTVSS | low polyreactivity
23 | QVQLGESGGGLVQAGGSLSLSCAASGITLHNYAMGWYRQAPGKERELVAAISRRGGNTYYADSVKGRFTISRDNAKNTVYLQMNSLIPEDTAVSYCAAYYHGRMDYWGQGTQVTVSS | high polyreactivity
24 | QVQLVESGGGLVQAGGSLRLSCAASGSIFTSNAMGWYRQAPGKERELVAAITSDGAITYADSVKGRFTISRDNAKNTVYLQMNSLKPEDTAVYYCATEIEYYVGSVADMGYWGQGTQVTVSS | low polyreactivity
25 | QVQLVESGGGLVQAGGRLRLSCAASGRIFYFNAMGWYRQAPGKEREFVASINSIGDSTYYADSVKGRFTISRDNAKNTVYLQMNSLKPEDTAVYYCNADHGVINYRLDYWGQGTQVTVSS | low polyreactivity
26 | QVQLVESGGGLVQAGGSLRLSCAASGSIFHYNAMGWSRQAPGKERELVAAISRGGSTHYADSVKGRFTISRDNAKNTVYLQMNSLKPEDTAVYYCATVQVVGPWSYRKLDYCGQGTQVTVSS | high polyreactivity
27 | QDQHVESGGGLVQAGGSLRLSCDASGFIFSYYTMGCYRQAPGKERELVAAIRSSGGSTYADSVKGRFTISRDNAKNTVYLQMTSLKPEDTAVYYCAAVQTWRWVYARDYWGQGTQVTVSS | high polyreactivity
28 | QVQLVESGGGLVQAGGSLRLSCAASGITFTPYALGWSRPAPGKERELVAAISASGGNTYYADSVKGRFTISRDNAKNTVYLQMNSLKPDDTAVYYCAAVVAFATGTYYYWGQGTQVTVSS | high polyreactivity
29 | QVQLVESGGGLVQAGGSLRLSCAASGRTFTPYTMGWYRQAPGKEREFVAAITVRGGSTYYADSVKGRFTISRDNAKNTVYLQMNSLKPEDTAVYYCAASYVSYRKRDDYWGQGTQVTVSS | high polyreactivity
30 | QVQLVESGGGLVQAGGSLRLSCAASGSIFSANARGWYRQAPGKERELVASITGDGSTNYADSVKGRFTISRDNAKNPGYLQMNSLKPEDTAVYYCAADIGSWYDYWGQGTQVTGSS | low polyreactivity
31 | QVQLVESGGGLVQAGGSLRLSCAASGSIFSYDAMGWYRLAPGKERELVAVINSGGRTNYADSVKGRFTISRDNAKNTVYLQMNRLKPEDTAVYYCAAQGYFVDRAGRYDRGDYWGQGTQVTVSS | high polyreactivity
32 | QVQLVESGGGLVQEGGSLRLSCAASGYIFVRYAMGWYRQAPGKEREFVAAISSSGGSTRYADSVKGRFTISRDNAKYTVYLQMHRLKPEDTPVYYCAATSVARNGSPMYYWGQGTLVTVSS | high polyreactivity
33 | QVQLVESGGRLVQAGGSLRLSCAASGRIIYGYAMGWYRQAPGKERELVATITWSGGSTYYADSVKGRFTISRDNAKNTVYLQMNSLKPEDTAVYYCAAYSPFIYQAYRYDYWGQGTLVTVSS | low polyreactivity
34 | QVQLVESGGGLVQAGGSLRISCAASGRIFARNAMGSYRQAPGKERELVATIRVGGGSTYYADSVTGRFTISRDNAKNTVYLQMNSLKPEDTSVYYCAVRQLYSYPGDRRGYYWGQGTQVTVSS | low polyreactivity
35 | QVQLVESGGGLVQAGGSLRLSCAASGFTFVVYTMGWYRQAPGKEREFVAVISESGGSTYYADSVKGRFTISRDNAKNTVYLQMNSLKPEDTAVYYCAARTRYYRDNYWGQVTQVTVSS | high polyreactivity
36 | QVQLVESGGGLVQAGGSLRLSCAASGRIIYINAMGWYRQAPGKERELVAAISSDGNTNYADSVKGRFTISRDNAKNTVYLQMNSLKPEDTAVYYCNADVWFYYTFDYWGLGTQVTVSS | low polyreactivity
37 | QVQLVESGGGLVQAGGSHRLSCAASGGTYITNAMGWYRQAPGKERELVAAITSGGRTTYADSVKGRFTISRDNAKNTVYLQMNSLKPEDTAVYYCAADHVYSYTYNFDYWGQGTLVTVSS | low polyreactivity
38 | QVQLVESGGGLVQAGGSLRLRCAASGTTTSNNSMGWYRQAPGKERELVADMSTNGDSTSYADSVKGRYTISRDNAKNTVYLQMNSLKPVDTAVYYCAASTYVTYWEYDYWGQGTQVTVSS | low polyreactivity
39 | QVQLVESGGGLVLAGGSLRLSCAASRFILRDNGMGWNRKAPVKERELVAAISERGGRTDYADSVKGRFTISRDNAKNTVYLQMNSLKPEDTAVYYCAAEDIANFYYWGQGPQVTVSS | high polyreactivity
40 | QVQLVESGGGLVHAGGSLRLSCAASGRTFYYNAKGWYRQAPGKESELVAAISSGDSTYYADSVKGRFTISRDNAKNTVSLQLNSLKPEDTAVYYCYADTGLGSLDFDKRDYWGQGTQVTVSS | low polyreactivity
41 | QVQLEESGGGLVQAGGSLRLICAASGGTFSYNAMGWYRQAPGKERELVAAISWSGTRTYYADSVKGRFTISRDNEKNTVYLQMNSLKPEDTAVYYCNADSDTPRYDYWGLGTQVTVSS | low polyreactivity
